Experiment [1] addresses Bacillus subtilis cysteine desulfurase SufS (B. subtilis) (UniProt O32164).
For experiment [2], the target named is Staphylococcus aureus cysteine desulfurase SufS (S. aureus USA300_LAC).

Turning to “Staphylococcus aureus sulfurtransferase SufU (from UniProt A0ABV4SS75 2-153) (natural protein)”, the figures for the stimulation factor of SufS cysteine desulfurase activity by SufU in experiment [1] and in experiment [2] were 15 and 1.5, respectively.

Values taken from article PMC9730764.
